Laboratory results as given in IntAct's records for PubMed 22493499.

B1: Signaling lymphocytic activation molecule (Mus musculus), Q9QUM4 (parent)
chain: MDPKGSLSWRILLFLSLAFELSYGTGGGVMDCPVILQKLGQDTWLPLTNEHQINKSVNKSVRILVTMATSPGSKSNKKIVSFDLSKGSYPDHLEDGYHFQSKNLSLKILGNRRESEGWYLVSVEENVSVQQFCKQLKLYEQVSPPEIKVLNKTQENENGTCSLLLACTVKKGDHVTYSWSDEAGTHLLSRANRSHLLHITLSNQHQDSIYNCTASNPVSSISRTFNLSSQACKQESSSESSPWMQYTLVPLGVVIIFILVFTAIIMMKRQGKSNHCQPPVEEKSLTIYAQVQKSGPQEKKLHDALTDQDPCTTIYVAATEPAPESVQEPNPTTVYASVTLPES

Variants of: B1
Conditions: with becn1_human BECN1, Q14457
becn1_human BECN1, Q14457, sequence (Q14457 whole entry): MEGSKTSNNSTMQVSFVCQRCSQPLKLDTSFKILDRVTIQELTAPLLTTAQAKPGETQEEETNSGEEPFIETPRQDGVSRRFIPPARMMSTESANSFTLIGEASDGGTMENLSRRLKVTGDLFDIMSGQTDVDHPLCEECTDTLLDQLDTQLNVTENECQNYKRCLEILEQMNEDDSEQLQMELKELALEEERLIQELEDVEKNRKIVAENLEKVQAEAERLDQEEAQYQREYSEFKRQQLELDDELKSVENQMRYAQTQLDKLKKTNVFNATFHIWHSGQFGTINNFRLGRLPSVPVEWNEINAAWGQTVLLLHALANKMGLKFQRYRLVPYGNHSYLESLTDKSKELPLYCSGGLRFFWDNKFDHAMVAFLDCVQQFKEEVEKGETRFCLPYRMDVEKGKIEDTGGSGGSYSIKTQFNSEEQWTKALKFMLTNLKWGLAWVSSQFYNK

| effect of a mutation on the interaction | Variant |
| --- | --- |
| decreasing interaction | Y288F;Y315F |
| decreasing interaction | Y288F;Y335F |
| decreasing interaction | Y315F;Y335F |
